Data: the nanobody polyreactivity screen of Harvey et al. (2022)

Experiment: yeast display, Sf9 membrane polyspecificity reagent, FACS + sequencing; frameworks hold sequencing errors
How it was run: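 Synthetic nanobody libraries on Saccharomyces cerevisiae BJ5465 were galactose-induced for 36–48 hours, stained 1 hour at 4 °C with 10% biotinylated, detergent-solubilized Sf9 membrane reagent and enriched on streptavidin microbeads. FACS then separated cells into low and high (top ~1%) gates by anti-HA (expression) and streptavidin (reagent binding) fluorescence. Genes were colony-PCR amplified, MiSeq 2 × 250 sequenced and CDR-length filtered. A clone's polyreactivity label is that of its gate of origin.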

| Sequence | polyreactivity (PSR sort gate) |
| --- | --- |
| QVQLVESGGGLVQAGGSLRLSCAASGITFAYYTMGWYRQAPGKERELVAGISSSGGRTYYADSVKGRFTISRDNAKNTVYLQMNSLKPEDTAVYYCAARFGYRGSTYTLTYGYWGQGTQVTVSS | high polyreactivity |
| QVQLVESGGGLVQAGGSLRLSCAASGRTFVPYAMGWYRQAPGKERELVAAITWSGGRTRYADSVKGRFTISRDNAKNTVYLQMNSLKPEDTAVYYCARYYWLYSSSYDYWGQGTQVTVSS | high polyreactivity |
| QVQLVESGGGLVQAGGSLRLSCAASVRIYRPYAMGRYRQAPGKERELVAAISGSGGSTYYADSVKGRFTISRDNAKNTVYLQMNSLKPEDTAVYYCNAAPKWSDYFYPLEYWGQGTQVTVSS | low polyreactivity |
| QDQLVESGGGLVQAGGSLRLSCAASGYTFRYNAMGWYIQATGKERELVATITRGGSTNYADSVKGRFTISRDNAKNTVYLQMNSLKPEDTAVYYCNKEAAPLAFVPSYYGRDYWGQGTEVTVSS | low polyreactivity |
| QVQLVDSGAGLVQAGGSLRISCVPPDSTTQSKLGDRIHRRLGKKVTWLPVLTSRGVGSYYADSVKGRFTISRDNAKNTVYLQMNSLIPEDTAVYYCNARYEVFYRYDYWGQGTQVSVSS | low polyreactivity |
| QVQIGESGGGLVQAGGSRRLSCAASGLTFYLYAMGWYRQAPGKERELVAAITTSGGSTYYADSVKGRFTISRDNAKNTVYLQMNSLKPEDTAVYDCATQGAIRGYGYWGQGTQVTVSS | high polyreactivity |
| QDQLVESGGGLVQAGGSLRLSCAASGSTFPPYAMGWNRQAPGKERELVDTSTRIGGSTYYADSVKGRFTISRDNAKKTVYLQKNSLKPEDTALYYCTARRYQSYRYYYWGQGTQVTVSS | high polyreactivity |
| QVQLVESGGGLVQAGGSLRLSCAASGRIFARYAMGWYRQAPGKERELVAAISFRGGSTYYADSVKGRFTISRDNAKNTVYLQMNSLKPEDTAVYYCAARFGGWDRGLDYWGQGTQVTVSS | high polyreactivity |
| QVQLVESGGGLVQAGGSLRLSCAASGRTFVYKAMGWYRQSPGKERELVAALDGGGDRTYYADSVKGRFTISRDNAKNTVYLQMNSLKPEDTAVYYCARDPGDTYYYSYPEGDYWGEGTQVTVSS | low polyreactivity |
| QVQLVESGGGLVQAGGSLRISCAASGRTFLKNTMGRYRQAPGKERELVAVITRNGDSTYADSVKGRFTISRDNAKNTVYLQMNSLKPEDTAVYYCATTYRDGVYELTTFDYWGQGTQVTVSS | low polyreactivity |
| QVQLVESGGGLVQAGGSLRLSCAASGRIFYYNAMGWYRQAPGKERELVAAITYSGTSTYYADSVKGRFTISRDNAKNTVYLQMNSLKPEDSAVYYCAVDSTDQAPPTYDYWGQGTQVTVSS | low polyreactivity |
| QVQLVESGGGLLKAGGSLRLSCAASRITFYIYPIVWYRQAPGKERELVATISWSDGRTYYADSVKGRFTISRDNAEHTVYLQLYSLKPEDTAVYYCAADWWYYQFDYEYWGQGTPVTVSS | low polyreactivity |
| QVQLVESGGGLVQAGGSLRLSCAASGLIFSVYAMGWYRQAPGKVRELVAAITGSGGRTYYADSVKGRFTISRDNAKNYVYLQMNSLKPEDTAVYYCAATVSSYPYYRYYSWGQGTQVTVSS | high polyreactivity |
| QVQLVESGGGLVQAGGSLRLSCAASGSTFAYYMGWYRQAPGKERELVASISTYYADSVKGRFTISRDNAKNTVYLQMNSLKPEDTAVYYCNKAYYYVFTNYSTALAGDWGQGTQVTVSS | low polyreactivity |
| QVQLVESGGGLVQAGGSLRLSCAASGFTFRWYAIGWYSQAPGKEREFVATISTRGGNTYYADSVKGRFTISRDNAKNTVYLQMNSLKPEDTAVYYSAAVGYAAYHRMDYWGQGTQVNVSS | high polyreactivity |
| QVQLVESGGGLVQAGGSLRISCAASGSTFLTNTLGWYRQAPGKERELVAAITLRGGRTYYADSVKGRFTISRDNAKNTVYLQMNSLKPEDTAVYYCNARNYYYPSDRDYWGQGTQVTVSS | low polyreactivity |
| QVQLVESGGGLVQAGGSLRLSCAASGRTFFTNAMGWSRQAPGKERELVATISQSGGSTYYADSVKGRFTISRDNAKNTVYLQMNCLKPEDTAVYYCAALSRYWVVRMDYWGQGTHVTVSS | high polyreactivity |
| QVQLVESGGGLVQAGGSLRLSCAASGSIFYRNAMGWYRQAPGKERELVAAISRSGGSTYYADSVKGRFTISRDNAKNTVYLQMNSLKPEDTAVYYCAKARPLGGTPSNGFDYWGQGTQVTVSS | high polyreactivity |
| QVQLVESGGGLVQAGGSLRLSCAASGRIFPPYGMGWYRQAPGKERELVAGITSDGSTNYADSVKGRFTISRDNAKNTVYLQMNSLKPEDTAVYFCAADQGSWYYYPVYYYGGDYWGQGTQVTVSS | low polyreactivity |
| QVELVESCGGLVQAGGSLRLSCAASGSTFTRNGMGWYSLAPGKEREMVAAISSGGSTNYADSVKGRFTISRDNAKNTVDFQKNSLQPEDTAVYYCAVDYRHSSSWNAGPWQMYYWGQGTQVTVSS | low polyreactivity |
| QVQLVESGGGLVQAGCSLRLSCAASGSIFAYYTMGWYRQAAGKERELVATISSGDITNYADSVKGRFTISRDNAKNSVYLQMNSLKPEDTAVYFCAAAELTSYYRTFIHKDYDFWGQGTQVSVSS | low polyreactivity |
| QVQLVDSGGGFVQAGGSLRLSCAASGSILAQKAMGWYRQAPGKERELVAAISWSGGRTYYADSVKGRFTISLDNAKNYVYLQMNCLKPEDTAVYYCNKVRRASTVHPDNYWGQGTQVTVSS | high polyreactivity |

| Sequence | polyreactivity (PSR sort gate) |
| --- | --- |
| QVQLVESGGGLVQAGGSLRLSCAASGSIFRPNDMGWYRQAPGKERELVAAISTGGSTSYADSVKGRFTISRDNAKNTVYLQMNSLKPEDTAVYYCAAVYYLTDWYGVWYSFDYWGQGTQVTVSS | low polyreactivity |
| QVQLVESGGGLVQAGGSLRLSCAASGFTFQKNAMGWNRQAPGKERDLVARITRSDGSTYYADSVKGRFTISRDNAKNTVYLPMNSLKPEDTAVYYWAARYCRLGSSRGGYWGQCTQVTVSS | low polyreactivity |
| QLQLVESGGGLVQAGGSLRLSCAASGSTFPWYTMGWYRQAPGKERELVAAITWNGVSTYYADSVKWRITISRDNAKNTVYFQMNSLKPEDTAVYYCATRIKRIGGFPYYYWGQGTQVTVSS | high polyreactivity |
| QVQLVESGGGLVQAGGILRLSCAASGSTISYNAMGWYRQAPGKERELVAAINYSGGNTNYADSVKGRFTISRDNAKNTVYLQMNSLKPEDTAVYYCAARWWSGYGYWGQGTQVTVSS | high polyreactivity |
| QVQLVESGGGLVQAGGSLRLSCAASGRTFFVYAMGWYRQAPVKERELVAAISNTGGRTYYADSVKGRFTISRDNAKNTVYLQMNSLKPEDTAVYYCAAPYSGPYRSYEYYWGQGTQVTVSS | low polyreactivity |
| QVQLVESCGGLVQAGGSLRLSCAASGRIIRKYDMGWYRQAPGKERELVAAISGTGITYYADSVKGRFTISRDNAKNTVYLQMNSLKPEDTAVYYCARGSKPRAWSWAYPSATSIYDYLGQGTQVTVSS | low polyreactivity |
| QVQLVESGGGLVQAGGSLRLSCAASGFTFGSYAMGWYRQAPGKERELVAAITCSGGSTYYADSVKGRFTISRDNAKNTVYLQMNSLKPEDTAVYYCNADVAGGYGWKSYHGYDYWGQGTQVTVSS | high polyreactivity |
| QVQLLESGGGLVQAGGTLRLSCAASGITFTVYTMGWYRQAPGKERELVAAIDSDGITNYADSVKGRFTISRDNAKNTVYLQMNSLKPEDTAVYYCAKQSGRADGVSGFDYWGQGTQVTVSS | low polyreactivity |
| QVQLVESGGGLVQAGGSLRLSCAASGLTFLVYAMGWYRQAPGKERELVAAITSIGDSTFYADSVKGRFTISRDNAKNTVYLQMNSLKPEDSAVYYCNADGPAGDIKFTLMDYDYWGQGTQVTVSS | low polyreactivity |
| QVQLVESGGGLVQAGGSLRLSCAASGSTFYVYAMGWYRQAPGKERELVAAINFNGGGTYYADSVKGRFTISRDNAKNTVYLQMNSLKPEDTAVYYCYYLYNYWGQGTQVTVSS | low polyreactivity |
| QVQLVESGGGLVQAGGSLRLSCAATGRTSTYYPMGWYRQAPGKERELVAAIRSGTITNYADSVKGRFTISRDNAKNTVYLQMNSLKPEDSAVYYCAAKYRYSTYHRGSFNYWGQGTQVTVSS | high polyreactivity |
| QVQLVESVGGLVQAGGSLRLSCAASGSIFRNYAMGWYRQAPGKERELVAAITYRGGTTYYADSVKGRFTISRDNAKNTVYLQMNSLKPEDTAVYYCNTASVSRLYGEYDYWGQGTQVTVSS | high polyreactivity |
| QVQHVESGGGLVQAGGGLRLSCAASGRIFRQNTMGWYRHAAGKEWELVASISLSAGSTFYADSVKGRFTISRDNAKNTVYLQMNSLKPEDTAVYYCAAEKPVHYVRGVHYDYWGQGTQVTVSS | low polyreactivity |
| QVQLVESGGGLVQAGGSLRLSCAASGRIFTTNTMGWYRQAPGKERELVARITYSGTSTYYADSVKGRFTISRDNAKNTVYLQMNSLKPEDTAVYYCAAKVWWRKYLLQDYYYWGQGTQVTVSS | high polyreactivity |
| QVQLVESGGGLVQAGGSLRLSCAASGRIFVVYAMGWYRQEPGKERELVAAITGGGRTNYADSVKGRFTISRDNAKNTVYLHMNSLKPEATAVYYCAAGTRSDARRYYYWGQGTQVTVSS | low polyreactivity |
| QVQLVESGGGVVQAGGSLGLSCAASGRLFGYYAMGWYRQAPGKERELGAAINYSGGSTYYADSVKGRFTISRDNAKNTVYLQMNSLKPEDTAVYYCNAVRYTLLYYWGQGTQVTVSS | high polyreactivity |
| QVQLVESGGGLVQAGGSLRLSCAASGSTFAQYAMGWYRQAPAKERELVAVISKRGGRTYYADSVKGRFTISRDNGKNTVYLQMNSLKPEDTAGYYCAADSGGPGYAMDYWGQGTQVTVSS | high polyreactivity |
| QVQLVESVGCLVQAGGSLRLSCAASGFIFGSYTMGWYRPAPGKESELVAAISSSGGNTYYADSVKGRFTISRDHAKNTVYLQMNSLKPEDTAVYYCAVDYIYDDAYNYWGQGTQVTVSS | high polyreactivity |
| QVQLVESGGGLVQAGGSLRLSCAASGLTLKRYAMGWYRQAPGKERELDAAISKSGGSTYYADSVKGRFTSSRDNAKNTVYLQMNSLKPEDTPVYYCAADSYNLWDDYWGQGTQVTVSS | low polyreactivity |
| QVQLVESGGGLVQAGGSLRLSCAASGFTFTYNAMGWYRKAPGKERELVAALTANGGGTNYADSVKGRFTISRDNAKNTVYLQMNSLKPEDTAVYYCAATIVVAVFESLGFYWYTEDNYWGQGTQVTVSS | low polyreactivity |
| QVQLEESAGGLVQAGGSLSLICAASGTIVSYAMGWYRQAPGKQRELVAAISRSGGSTYYADSVKGRFTIARDNEKNTVYLQMNSLKPEDTAVYYCAARWRYLTLYAGFNYWGQGTQVTVSS | high polyreactivity |
